# Data taken from the DeepSol protein solubility set.
# Assay: soluble on expression in E. coli; label from the status in PepcDB or PDB records
row,Sequence,soluble on expression in E. coli
1,SCIIFFKFDPRPVSKNAYRLILAANRDEFYSRPSKLADFWGNNNEILSGLDMEEGKEGGTWLGISTRGKLAALTNYLQPQLDWQARGRGELVTHFLTTDVDSLSYLKKVSMEGHLYNGFNLIAANLSTAKGDVICYYGNRGEPDPIVLTPGTYGLSNALLETPWRKLCFGKQLFLEAVERSQALPKDVLIASLLDVLNNKEAQLPDPAIEDQGGEYVQPMLSKYAAVCVRCPGYGTRTNTIILVDADGHVTFTERSMMDKDLSHWETRTYEFTLQS,not soluble
2,SCRRAFDLYFVLDKSGSVANNWIEIYNFVQQLAERFVSPEMRLSFIVFSSQATIILPLTGDRGKISKGLEDLKRVSPVGETYIHEGLKLANEQIQKAGGLKTSSIIIALTDGKLDGLVPSYAEKEAKISRSLGASVYCVGVLDFEQAQLERIADSKEQVFPVKGGFQALKGIINSILAQSC,soluble
3,SDGPERDFNLKVVLISFKKCLTDKGEVLLDHYTASWKGLVRFLNSLGAVFSFISKDVVSKLQIMEHLRSGPQSEHYISLQSMVAYEVSNKLVDRDSRSRPRHPNSGCRTVLRLHRALHWLQLFLEGLRTSSEDARTSTLCSEAYNATLAAYHSWIVRQAVNVAFHALPPRKVFLEAMNMGSSEQAVEMLGEALPFIEQVYDISQKLYAEHSLLDLP,soluble
4,SDIELIHCGADLVERMMNDIRQAASSVHMMFFIMKNDEVSHNMYTLLKTKAQAGVSVYLLLDWAGCRAIKKTALQTMKNAGVHVHVMNRPRFPFFFFHMQKRNHRKITVIDGKIGYIGGFNIAEEYLGKKAKFGNWEDYHLRMIGEGVHDLQTLFASDLKRNTGIELGSDVWPKLQQGTISHKIYATDGYSLENIYLANIAQAKNRLTVCTPYYIPSKPLQEALINARKNGVSVRIIVPMKSDHPLVREAAFTYYSELLDAGCLIYRYYQGFYHVKALIIDDHLSIIGTANFDKRSLFLNEEVNVEIDDEAFTSEVYATIEEDMKKSELLTMEDFSKRTFRQRPAEWLGR,not soluble
5,SDNLSSEEIQQRAHQITDESLESTRRILGLAIESQDAGIKTITMLDEQKEQLNRIEEGLDQINKDMRETEKTLTELNKCCGLCVCPCNRTKNFESGKAYKTTWGDGGENSPCNVVSKQPGPVTNGQLQQPTTGAASGGYIKRITNDAREDEMEENLTQVGSILGNLKDMALNIGNEIDAQNPQIKRITDKADTNRDRIDIANARAKKLIDS,soluble
6,SDPDADRVGIACKNDKGEWVLINGNQTCLMYLYYIITQYNKLGKMTGNEFCVKTIVTTELIKKIADKNHIEMLDCYTGFKWIAREIRLREGKKKYIGGGEESYGFLAEDFVRDKDAVSACCLIAEVAAWAKDNGKTLYQLLMDIYVEYGFSKE,not soluble
7,SDVYNNTAFFEQYMKRRYRENSPNESIEKPVFFQLIGHVQGKQILDLGCGDAKFGAELLEKGCYSYTGIEGSELMYEKAKKQLENKNGSVHFLNLKDYTYPSSTFDLVTSRLALHYIEHLDTIFQNVFQTLKTNGTFTFSVQHPVITSSFESLQTSGKRTIWLVDDYFKLGKRVEPWIDQEVIKYHRTTEEYFTLLQQAGFTITSLKEATPNPTYFQDEEEYKRRLRIPLFLLFSCTK,soluble
8,SDYFRSCWGPRSPAGHRVRGSDVAGRQDGLLWYKDAGQLVTGEFSMAVVQANNLLEDQSQVESGALSMAEPGPQGTFIGVYDGHGGPETARFINDHMFHHLRRFATEHKCMSTDVIRKAFQATEEGFLSLVSKQWSLKPQIAAVGSCCLVGVICSGTLYVANLGDSRAVLGRFVKSTGEVVATQLSSEHNACYEEVRQELQASHPDDPQIVVLKHNVWRVKGLIQISRSIGDVYLKRPEYNREPLHSKFRLRETFKRPILSSEPAIAVHQIQPNDHFVIFASDGLWEHLSNQEAVDLVQNNPRNGIARRLVKVAMQEAAKKREMRYSDLKKIDRGVRRHFHDDITVIVVFLDSNAISKANWSRGPSVSLRGGGVTLPANSLAPFSTPTVLSSTY,soluble
9,SEAVLTEELDEEEQLLRRHRKEKKELQAKIQGMKNAVPKNDKKRRKQLTEDVAKLEKEMEQKHREELEQLKLTTKENKIDSVAVNISNLVLENQPPRISKAQKRREKKAALEKEREERIAEAEIENLTGARHMESEKLAQILAARQLEIKQIPSDGHCMYKAIEDQLKEKDCALTVVALRSQTAEYMQSHVEDFLPFLTNPNTGDMYTPEEFQKYCEDIVNTAAWGGQLELRALSHILQTPIEIIQADSPPIIVGEEYSKKPLILVYMRHAYGLGEHYNSVTRLVNIVTENCS,soluble
10,SELPPEPQANGEAVGAGGGPIYYIYEEEEEEEEEEEEPPPEPPKLVNDKPHKFKDHFFKKPKFCDVCARMIVLNNKFGLRCKNCKTNIHEHCQSYVEMQRCFGKIPPGFHRAYSSPLYSNQQYACVKDLSAANRNDPVFETLRTGVIMANKERKKGQADKKNPVAAMMEEEPESARPEEGKPQDGNPEGDKKAEKKTPDDKHKQPGFQQSHYFVALYRFKALEKDDLDFPPGEKITVIDDSNEEWWRGKIGEKVGFFPPNFIIRVRAGERVHRVTRSFVGNREIGQITLKKDQIVVQKGDEAGGYVKVYTGRKVGLFPTDFLEEI,soluble
11,SENDSIELDDVANLMFYGEGQIGTNKQPFMFIFDTGSANLWVPSVNCDSIGCSTKHLYDASASKSYEKDGTKVEISYGSGTVRGYFSKDVISLGDLSLPYKFIEVTDADDLEPIYSGSEFDGILGLGWKDLSIGSIDPVVVELKKQNKIDNALFTFYLPVHDKHVGYLTIGGIESDFYEGPLTYEKLNHDLYWQIDLDIHFGKYVMQKANAVVDSGTSTITAPTSFLNKFFRDMNVIKVPFLPLYVTTCDNDDLPTLEFHSRNNKYTLEPEFYMDPLSDIDPALCMLYILPVDIDDNTFILGDPFMRKYFTVFDYEKESVGFAVAKNL,soluble
12,SENDVIELDDVANLMFYGEGEVGDNHQKFMLIFDTGSANLWVPSKKCNSIGCSTKHLYDSSKSKSYEKDGTKVEITYGSGTVRGFFSKDLVTLGYLSLPYKFIEVTDTDDLEPLYTAAEFDGILGLGWKDLSIGSIDPIVVELKNQNKIDQALFTFYLPVHDKHSGYLTIGGIEEKFYEGELTYEKLNHDLFWQVDLDVNFGKTSMEKANVIVDSGTSTITAPTSFINKFFKDLNVIKVPFLPFYITTCNNKDMPTLEFKSANNTYTLEPEYYMEPLLDIDDTLCMLYILPVDIDKNTFILGDPFMRKYFTVFDYDKESIGFAVAKN,soluble
13,SENLYFQGSASATCERCKGGFAPAEKIVNSNGELYHEQCFVCAQCFQQFPEGLFYEFEGRKYCEHDFQMLFA,soluble
14,SEQDKWKTSAQLWQNLDEETIRALWNVQGQLNKLEEERDKAIEEIERQFLESSRPLYEERQRICSLVDRFWFHVLCSHPYTGTKMTNKDRTVLQHLEDVFFTEIENCMQGYQINLKFSPNDYIEDEIIWKQVKYVDDLQGWKGAASGIRWKRQDSIIDPDNEFFSDGEEVLQLTEKGNTVAKLQRKARSLLSWFETEDVTDNLKDVFYEDIWQHCIDWFFARDNASIEEFPVTMEGEQEDIVMID,soluble
15,SESPWIAEDTSQIQTKLLEFAKSPEVFDWMVKIRRKIHENPELGYEELETSKLIRSELELIGIKYRYPVAITGVIGYIGTGEPPFVALRADMDALPIQEGVEWEHKSKIAGKMHACGHDGHVTMLLGAAKILHEHRHHLQGTVVLIFQPAEEGLSGAKKMREEGALKNVEAIFGIHLSARIPFGKAASRAGSFLAGAGVFEAVITGKGGHAAIPQHTIDPVVAASSIVLSLQQLVSRETDPLDSKVVTVSKVNGGNAFNVIPDSITIGGTLRAFTGFTQLQQRVKEVITKQAAVHRCNASVNLTPNGREPMPPTVNNKDLYKQFKKVVRDLLGQEAFVEAAPVMGSEDFSYFAETIPGHFSLLGMQDETNGYASSHSPLYRINEDVLPYGAAIHASMAVQYLKEKASKGSVSGFHEEL,soluble
16,SETQKTQAENPPKPATSSCRKKTKDDANFLEDVKDHIDDFINASMDDHKNCFNKTIKKMFGLSKAVADKQQSEAKGGVESYLPLQTTVSD,soluble
17,SFHYQALPMRVSFEVGAVTKIGEELDRLGLSRALVLCTPEQKHLADLVMDHLGDRGAGIFDQARMHVPVETADRARDRARKLGADSCVVIGGGSSIGLGKAIALEHGLPIIAIPTTYAGSEMTPIWGLTRDGRKQTGRDAKVLPQSVIYDPQLTAT,not soluble
